*1 amine or outer side, *2 acyl side, *3 side chain or, on linkers, in order; H or OH if unused. Bridges are numbered along the chain shown (N, C = ends). Where no end group is shown, it is not given here. [ ]: non-standard residue; d: D form. 124TriAz = 3-(1,2,4-triazol-1-yl)-alanine, O=C([C@H](Cn1cncn1)N[*:1])[*:2]; TATA = O=C(CC[*:1])N1CN(C(=O)CC[*:2])CN(C(=O)CC[*:3])C1; HGln = homoglutamine, NC(=O)CCC[C@H](N[*:1])C(=O)[*:2]; Trp(5-F) = N[C@@H](Cc1c[nH]c2ccc(F)cc12)C(=O)O; Ala(4-thiazolyl) = N[C@@H](Cc1cscn1)C(=O)O; 1Nal = N[C@@H](Cc1cccc2ccccc12)C(=O)O; 2Nal = N[C@@H](Cc1ccc2ccccc2c1)C(=O)O; Dopa = N[C@@H](Cc1ccc(O)c(O)c1)C(=O)O; Gly(cPent) = N[C@H](C(=O)O)C1CCCC1; Ser(ΨH,HPro) = O=C(O)[C@@H]1COCN1; Ala(cPr) = N[C@@H](CC1CC1)C(=O)O; Hyp = O=C(O)[C@@H]1C[C@@H](O)CN1; NMeT = CN[C@H](C(=O)O)[C@@H](C)O; hArg = N=C(N)NCCCC[C@H](N)C(=O)O; 2Thi = N[C@@H](Cc1cccs1)C(=O)O; NMeC = CN[C@@H](CS)C(=O)O; hSer = N[C@@H](CCO)C(=O)O; Aib = CC(C)(N)C(=O)O; βAla = NCCC(=O)O; Sar = CNCC(=O)O
T1: human Nectin-4 (human, UniProt Q96NY8 32-349)
T1 construct: a Gly32-Ser349 FLAG construct is described only under the SPR assay; also called PVRL4
T1 sequence (looked up): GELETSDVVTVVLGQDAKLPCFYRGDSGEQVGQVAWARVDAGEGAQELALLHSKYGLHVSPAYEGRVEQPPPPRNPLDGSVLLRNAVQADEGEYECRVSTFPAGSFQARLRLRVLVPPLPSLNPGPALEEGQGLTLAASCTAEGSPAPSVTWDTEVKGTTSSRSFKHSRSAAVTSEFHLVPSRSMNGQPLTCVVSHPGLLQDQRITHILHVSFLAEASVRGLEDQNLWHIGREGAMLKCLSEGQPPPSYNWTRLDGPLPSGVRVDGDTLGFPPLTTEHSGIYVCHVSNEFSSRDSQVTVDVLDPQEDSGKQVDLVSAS


What follows are binders tested against T1, human Nectin-4 (assay: FP competition, tracer SEQ ID NO 217).
Method: Peptides were diluted to an appropriate concentration in assay buffer as described in the direct binding assay with a maximum of 5% DMSO, then serially diluted 1 in 2. […] Measurements were conducted as for the direct binding assay, however the gain was determined prior to the first measurement. Data analysis was in Systat Sigmaplot version 12.0 where the mP values were fit to a user defined cubic equation to generate a Ki value: […]

Ac-CPF[dA]CMKNWSWPIWC (linker 1-5-15 via TATA) [BCY7538] and Ac-CPF[dD]CMKNWSTPIWC (linker 1-5-15 via TATA) [BCY7819] are within 1.5-fold of each other in Ki: 8.5 nM for the first, 12 nM for the second.

Compared with Ac-CPF[dK]CM[hArg]NWSTPIWC (linker 1-5-15 via TATA) [BCY7820], Ac-C[Ser(ΨH,HPro)]F[dD]CM[hArg]NWSTPIWC (linker 1-5-15 via TATA) [BCY7876] is 5.9-fold higher in Ki: 10 nM for the first, 59.2 nM for the second.

Compared with Ac-CPF[dD]CM[hArg][2Thi]WSTPIWC (linker 1-5-15 via TATA) [BCY7877], ACAPLDDYWCGRICA (linker 2-10-14 via TATA) [BCY432] is 120-fold higher in Ki: 9.5 nM for the first, 1100 nM for the second.

Ac-CPF[dD]CM[hArg][Ala(4-thiazolyl)]WSTPIWC (linker 1-5-15 via TATA) [BCY7879] and Ac-CPF[dD]CM[hArg][124TriAz]WSTPIWC (linker 1-5-15 via TATA) [BCY7881] are within 1.5-fold of each other in Ki: 12.5 nM for the first, 14.4 nM for the second.

Ac-CPF[dD]CM[hArg]NWS[124TriAz]PIWC (linker 1-5-15 via TATA) [BCY7883] and Ac-CPF[dD]CM[hArg]NWST[Ser(ΨH,HPro)]IWC (linker 1-5-15 via TATA) [BCY7884] are within 1.5-fold of each other in Ki: 189 nM for the first, 223 nM for the second.

Compared with Ac-CP[Dopa][dD]CM[hArg]NWSTPIWC (linker 1-5-15 via TATA) [BCY7886], {Ac-βAla}-[Sar][Sar][Sar][Sar][Sar]CP[1Nal][dD]CM[hArg]DWSTPIWC (linker 6-10-20 via TATA) [BCY8123] is 3.3-fold lower in Ki: 15 nM for the first, 4.5 nM for the second. The second binds more tightly here.

First: Ac-CP[1Nal][dD]CM[hArg]DWSTPIWC (linker 1-5-15 via TATA) [BCY8127]
Second: Ac-CP[1Nal][dD]CL[hArg]DWSTPIWC (linker 1-5-15 via TATA) [BCY8211]
The Ki of the first is 1.9-fold lower: 2.4 nM for the first, 4.5 nM for the second. The first binds more tightly here.

Going from Ac-CP[1Nal][dR]CM[hArg]DWSTPIWC (linker 1-5-15 via TATA) [BCY8215] to Ac-CPF[dD]CM[hArg]NWS[Dopa]PIWC (linker 1-5-15 via TATA) [BCY7887], the Ki rises from 3 nM to 21.4 nM (7.1-fold). The first binds more tightly here.

Going from Ac-CPF[dD]CM[hArg]N[Trp(5-F)]STPIWC (linker 1-5-15 via TATA) [BCY7891] to Ac-CPF[dD]CM[hArg]NWSTPI[Trp(5-F)]C (linker 1-5-15 via TATA) [BCY7892], the Ki rises from 5 nM to 9.5 nM (1.9-fold).

First: DDWCAPLDDYWCGRICA (linker 4-12-16 via TATA, also called 80-10-11-T01) [BCY433]
Second: Ac-CPF[dF]CM[hArg]NWSTPIWC (linker 1-5-15 via TATA) [BCY7902]
The Ki of the first is 17-fold higher: 69.4 nM for the first, 4 nM for the second.

First: Ac-CPF[dE]CM[hArg]NWSTPIWC (linker 1-5-15 via TATA) [BCY7903]
Second: Ac-CPF[dQ]CM[hArg]NWSTPIWC (linker 1-5-15 via TATA) [BCY7904]
The Ki of the first is 5.1-fold higher: 41 nM for the first, 8 nM for the second.

First: Ac-CPF[dL]CM[hArg]NWSTPIWC (linker 1-5-15 via TATA) [BCY7906]
Second: Ac-CPF[dS]CM[hArg]NWSTPIWC (linker 1-5-15 via TATA) [BCY7907]
The Ki of the first is 1.7-fold lower: 6 nM for the first, 10 nM for the second. The first binds more tightly here.

First: Ac-CPF[dD]CM[hArg]NW[hSer]TPIWC (linker 1-5-15 via TATA) [BCY7908]
Second: Ac-CPF[dD]CM[hArg]NWSTP[Ala(cPr)]WC (linker 1-5-15 via TATA) [BCY7912]
The Ki of the first is 2.2-fold higher: 20 nM for the first, 9 nM for the second.

First: Ac-CPF[dD]C[HGln][hArg]NWSTPIWC (linker 1-5-15 via TATA) [BCY7914]
Second: Ac-CPF[dD]C[Gly(cPent)][hArg]NWSTPIWC (linker 1-5-15 via TATA) [BCY7915]
The Ki of the first is 3.1-fold higher: 62 nM for the first, 20 nM for the second. The second binds more tightly here.

Going from Ac-CPF[dD][NMeC]M[hArg]NWSTPIWC (linker 1-5-15 via TATA) [BCY7973] to Ac-CPF[dD]C[hArg]NWS[NMeT]PIWC (linker 1-5-14 via TATA) [BCY7979], the Ki rises from 4 nM to 191 nM (48-fold).

Going from Ac-QK[1Nal]CAPLSDYWCNRIC (linker 4-12-16 via TATA) [BCY7996] to DDACPFGCMETWSWPIWCA (linker 4-8-18 via TATA) [BCY3386], the Ki rises from 21 nM to 80.2 nM (3.8-fold).

Going from Ac-QK[2Nal]CAPLSDYWCNRIC (linker 4-12-16 via TATA) [BCY7997] to Ac-QKWCAPLSDY[1Nal]CNRIC (linker 4-12-16 via TATA) [BCY7998], the Ki rises from 22 nM to 135 nM (6.1-fold).

Ac-QKWCAPLSDYWC[dD]RIC (linker 4-12-16 via TATA) [BCY8000] and Ac-DDDCPF[dD]CM[hArg]NWSTPIWC (linker 4-8-18 via TATA) [BCY8028] are within 1.5-fold of each other in Ki: 60 nM for the first, 61.9 nM for the second.

Ac-CP[1Nal][dD]CM[hArg]NWSTPIWC (linker 1-5-15 via TATA) [BCY8030] and Ac-CP[2Nal][dD]CM[hArg]NWSTPIWC (linker 1-5-15 via TATA) [BCY8031] are within 1.5-fold of each other in Ki: 2.5 nM for the first, 3.6 nM for the second.

Compared with Ac-CPF[dD]CM[hArg]NWSTP[Hyp]WC (linker 1-5-15 via TATA) [BCY8037], SDNCPFGCMKDWSWPIWCA (linker 4-8-18 via TATA) [BCY3387] is 42-fold higher in Ki: 5.6 nM for the first, 234 nM for the second. The first binds more tightly here.

Compared with Ac-C[Aib]F[dD]CM[hArg]NWSTPIWC (linker 1-5-15 via TATA) [BCY8041], Ac-CAPLSDYWCNRIC (linker 1-9-13 via TATA) [BCY8044] is 4.3-fold higher in Ki: 39.1 nM for the first, 170 nM for the second. The first binds more tightly here.

Compared with DTACPFGCMRGWSWPIWCA (linker 4-8-18 via TATA) [BCY3388], Ac-CPF[dK](MeO‑dPEG12)CM[hArg]NWSTPIWC (linker 1-5-15 via TATA) [BCY8089] is 16-fold lower in Ki: 129 nM for the first, 8 nM for the second. The second binds more tightly here.

{Ac-βAla}-[Sar][Sar][Sar][Sar][Sar]CP[1Nal][dD]CM[hArg]DWSTP[Hyp]WC (linker 6-10-20 via TATA) [BCY8122] and {Ac-βAla}-[Sar][Sar][Sar][Sar][Sar]CP[1Nal][dD]CM[hArg]NWSTP[Hyp]WC (linker 6-10-20 via TATA) [BCY8120] are the same in Ki: 3 nM for the first, 3 nM for the second.

{Ac-βAla}-[Sar][Sar][Sar][Sar][Sar]CP[1Nal][dD]CM[hArg]HWSTP[Hyp]WC (linker 6-10-20 via TATA) [BCY8121] and Ac-CP[1Nal][dD]CM[hArg]NWSTP[Hyp]WC (linker 1-5-15 via TATA) [BCY8124] are within 1.5-fold of each other in Ki: 4 nM for the first, 3.5 nM for the second.

Reference: patent US20210269480A1 (published 2021)
